Data: paper PMC3360003

Legend:
[1] = biological target: Influenza A virus matrix 1 (M1) protein with a C-terminal His6-tag (Influenza A virus A/chicken/Jiangsu/1/1998 (H9N2)); assay: SEC
[2] = biological target: Influenza A virus matrix 1 (M1) protein with a C-terminal His6-tag (Influenza A virus A/chicken/Jiangsu/1/1998 (H9N2)); assay: SEC; […], pH 5.0, 25°C; […]
[3] = biological target: Influenza A virus matrix 1 (M1) protein with a C-terminal His6-tag (Influenza A virus A/chicken/Jiangsu/1/1998 (H9N2)); assay: […]; 0.2% ([…], pH 8.0, room temperature, 5 min; […]

Measured: stoichiometry N

Influenza A virus matrix 1 (M1) protein with a C-terminal His6-tag (natural protein)
2: [1] | [2] | [3]
